pKd: −log10 of the molar value.
Target: human TNFR2 (tumor necrosis factor receptor 2) (human) (UniProt P20333)
Experiment: surface plasmon resonance (Pioneer SensiQ)

Chain of UniProt P20333 (P20333 23-257 S98P/S102P limits assumed): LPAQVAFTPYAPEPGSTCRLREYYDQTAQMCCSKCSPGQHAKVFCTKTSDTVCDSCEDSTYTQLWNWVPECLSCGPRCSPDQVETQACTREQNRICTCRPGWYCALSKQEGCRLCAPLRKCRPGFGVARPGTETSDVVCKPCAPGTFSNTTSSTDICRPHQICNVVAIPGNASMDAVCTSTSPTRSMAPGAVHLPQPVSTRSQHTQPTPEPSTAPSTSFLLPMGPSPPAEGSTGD

**Q.** “Clone MAB726 (R&D Systems, Inc.) (antibody)” was tested. Which pKd did it give?
**A.** 9.21
